In paper PMC5506826:

Key:
Conditions in all cases: EMSA: 40 mM Tris-HCl pH 8, 100 mM KCl, 0.5 mM DTT, 0.05% NP40, 2 mM spermidine, 0.2 mM EDTA, 8% glycerol, 15 ng/ul herring sperm DNA, 30 min room temperature …
[1] = tested on: T1, 6His-SUMO-RegA (Acidithiobacillus ferrooxidans ATCC 23270T), ORF:158a6978; assay: EMSA
T1 sequence: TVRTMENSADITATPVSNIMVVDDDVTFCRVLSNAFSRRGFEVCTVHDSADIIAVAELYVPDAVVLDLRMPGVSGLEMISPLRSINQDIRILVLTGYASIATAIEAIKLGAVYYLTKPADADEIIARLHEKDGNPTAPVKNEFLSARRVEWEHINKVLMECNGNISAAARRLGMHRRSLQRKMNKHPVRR

[2] = tested on: T1, 6His-SUMO-RegA (Acidithiobacillus ferrooxidans ATCC 23270T), ORF:158a6978; assay: DLS
[3] = tested on: T2, RegA-HTH-6His (Acidithiobacillus ferrooxidans ATCC 23270T), ORF:158a6978; assay: EMSA
T2 sequence: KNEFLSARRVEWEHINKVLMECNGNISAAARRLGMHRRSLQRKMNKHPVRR

Row | Sequence | binding [1] | binding [2] | binding [3]
1 | CATTATGCGGCTGGCACAATACATGCATAAAACATCTCGTGCTGCCGCGGGATTCTCATTTTCATTTACTCATTGAATATCATAAGCGGGATGCAGCCATAAATATAACGCTGGTTGTGTTATTGGGAGCGAGCATTTAATTCTGTTGATATCGTTTATGGGAATAACAAAAGTGGAGACGCAGCTGAAAAAGCGAAGCTGATGACAGAGTACGTTATACCTCACCAAATGGATTGGAGACTTGATATGCC (double strand) [tet 251 bp] | binds |  | 
2 | CCCCAGTCATGAAGCCTACCGTGGTAATCGCCCCCCTTGCGGTTAAGCTAACTACTTCTGGTAAACCCCACTTCCATGGTGTGACGGGCGGTGTG (double strand) [rrs 16S 95 bp] |  | no binding | no binding
3 | TGTCAGTTTTTGGGACATTTTAGTGATCGCGGCATATAATTAAAAGGCCAGATTAACATGTTTAAATAACGTTAGCACATAATTCTTTTCTTATGTTCTTTATTTAAGTTATTGTGTTTTAGTGGATCCGTATCGTGATG (double strand) [rus PI 140 bp] | binds |  | 
